# Measured values from the supplement of paper PMC9112550, “Optimization of the antimicrobial peptide Bac7 by deep mutational scanning” (BMC Biology, 2022).
# Tested on: Escherichia coli TOP10
# Experiment: shrunken log2 fold change of peptide-encoding DNA abundance (4.5 h post-induction vs induction); higher = less antimicrobial activity (less host growth inhibition)
# Conditions: time post-induction: 4.5 h; library: site-saturation at positions 5, 18, 19, 20
# 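Further: peptides expressed intracellularly from a pBAD plasmid library in pooled LB shake-flask culture, induced with 0.3% L-arabinose, DNA abundance read by NGS, three biological replicates, DESeq2 with apeglm shrinkage.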
row,Sequence,shrunken log2 fold change
1,RRIRPRPPRLPRPRPRPSSYPRP,-0.197
2,RRIRRRPPRLPRPRPRPPYCPRP,0.256
3,RRIRLRPPRLPRPRPRPNPLPRP,0.256
4,RRIRSRPPRLPRPRPRPKIFPRP,-0.0746
5,RRIRIRPPRLPRPRPRPMSFPRP,-0.178
6,RRIRTRPPRLPRPRPRPEWMPRP,-0.048
7,RRIRNRPPRLPRPRPRPHCEPRP,-0.778
8,RRIRHRPPRLPRPRPRPCNQPRP,-0.185
9,RRIRKRPPRLPRPRPRPVGCPRP,0.266
10,RRIRRRPPRLPRPRPRPNYMPRP,-0.605
11,RRIRMRPPRLPRPRPRPWRGPRP,0.497
12,RRIRHRPPRLPRPRPRPKSHPRP,0.77
13,RRIRERPPRLPRPRPRPQCGPRP,-0.43
14,RRIRRRPPRLPRPRPRPHYPPRP,0.158
15,RRIRWRPPRLPRPRPRPMMWPRP,0.0342
16,RRIRVRPPRLPRPRPRPTELPRP,0.324
17,RRIRWRPPRLPRPRPRPFEEPRP,0.43
18,RRIRTRPPRLPRPRPRPTCSPRP,0.00373
19,RRIRIRPPRLPRPRPRPRNVPRP,-0.247
20,RRIRQRPPRLPRPRPRPQHQPRP,0.26
21,RRIRDRPPRLPRPRPRPYWLPRP,-0.236
22,RRIRVRPPRLPRPRPRPPCCPRP,0.117
23,RRIRHRPPRLPRPRPRPIECPRP,0.0039
24,RRIRMRPPRLPRPRPRPELCPRP,3.34
25,RRIRKRPPRLPRPRPRPERNPRP,0.683

row,Sequence,shrunken log2 fold change
1,RRIRERPPRLPRPRPRPTIEPRP,-0.0577
2,RRIRERPPRLPRPRPRPWWQPRP,-0.0206
3,RRIRQRPPRLPRPRPRPVMDPRP,-0.39
4,RRIRRRPPRLPRPRPRPLWMPRP,0.0635
5,RRIRARPPRLPRPRPRPVFWPRP,0.699
6,RRIRFRPPRLPRPRPRPKGRPRP,-0.0884
7,RRIRKRPPRLPRPRPRPGTFPRP,0.253
8,RRIRSRPPRLPRPRPRPILDPRP,-0.152
9,RRIRKRPPRLPRPRPRPLPDPRP,-0.105
10,RRIRQRPPRLPRPRPRPFRAPRP,0.0134
11,RRIRYRPPRLPRPRPRPNTGPRP,-0.195
12,RRIRERPPRLPRPRPRPIGAPRP,-0.464
13,RRIRFRPPRLPRPRPRPNYWPRP,-0.221
14,RRIRERPPRLPRPRPRPCMNPRP,-0.341
15,RRIRHRPPRLPRPRPRPHITPRP,-0.857
16,RRIRGRPPRLPRPRPRPCITPRP,0.158
17,RRIRCRPPRLPRPRPRPQRSPRP,2.66
18,RRIRSRPPRLPRPRPRPMSRPRP,0.0278
19,RRIRFRPPRLPRPRPRPPVCPRP,-0.0141
20,RRIRTRPPRLPRPRPRPEPIPRP,0.226
21,RRIRGRPPRLPRPRPRPIKTPRP,0.143
22,RRIRRRPPRLPRPRPRPWGIPRP,-0.24
23,RRIRSRPPRLPRPRPRPNYRPRP,-0.366
24,RRIRKRPPRLPRPRPRPPEHPRP,0.197
25,RRIRMRPPRLPRPRPRPGVLPRP,0.135

row,Sequence,shrunken log2 fold change
1,RRIRPRPPRLPRPRPRPRNNPRP,-0.228
2,RRIRDRPPRLPRPRPRPDMHPRP,0.633
3,RRIRLRPPRLPRPRPRPDGDPRP,0.234
4,RRIRHRPPRLPRPRPRPKQKPRP,-0.00654
5,RRIRVRPPRLPRPRPRPKYLPRP,-0.308
6,RRIRNRPPRLPRPRPRPRNNPRP,-0.45
7,RRIRTRPPRLPRPRPRPILAPRP,0.00499
8,RRIRTRPPRLPRPRPRPVVTPRP,0.0483
9,RRIRYRPPRLPRPRPRPLEEPRP,-0.0801
10,RRIRERPPRLPRPRPRPALGPRP,0.37
11,RRIRTRPPRLPRPRPRPYAIPRP,-0.000694
12,RRIRLRPPRLPRPRPRPQQEPRP,0.0119
13,RRIRSRPPRLPRPRPRPYQHPRP,-0.934
14,RRIRGRPPRLPRPRPRPKTEPRP,0.713
15,RRIRHRPPRLPRPRPRPCEQPRP,-0.0166
16,RRIRFRPPRLPRPRPRPQPKPRP,0.666
17,RRIRVRPPRLPRPRPRPFEVPRP,-0.164
18,RRIRDRPPRLPRPRPRPQCSPRP,0.0391
19,RRIRLRPPRLPRPRPRPGQNPRP,-0.18
20,RRIRHRPPRLPRPRPRPPMEPRP,-0.0615
21,RRIRARPPRLPRPRPRPHKDPRP,0.0954
22,RRIRQRPPRLPRPRPRPKWRPRP,0.0839
23,RRIRDRPPRLPRPRPRPEKQPRP,0.0247
24,RRIRARPPRLPRPRPRPMQPPRP,0.369
25,RRIRYRPPRLPRPRPRPVKGPRP,-0.015
